From article PMC5428041, “Dynamic equilibrium on DNA defines transcriptional regulation of a multidrug binding transcriptional repressor, LmrR” (Scientific Reports, 2017)

Target: T1, LmrR (Lactococcus lactis) (UniProt A2RI36)
T1 sequence: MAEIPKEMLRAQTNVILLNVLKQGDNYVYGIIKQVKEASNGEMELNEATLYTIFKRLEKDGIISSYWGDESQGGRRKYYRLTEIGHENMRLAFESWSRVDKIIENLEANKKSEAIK
Test: NMR titration
Details: apo; apparent Kd per base pair; DNA is a fragment pool; 10 mM NaPi pH 6.8, 100 mM NaCl, 25 C (ITC; same buffer for NMR); 5% DMSO in riboflavin titrations

Substance: sonicated E. coli genomic DNA
- Kd: 37 µM
